The chains are these.
B1: p40TL1A-0041 KiH mFd bispecific antibody (bispecific antibody)
heavy: QVQLVQSGAEVKKPGASVKVSCKASGYDYTYYGISWVRQAPGQGLEWMGWISTYNTGTHYAPSLQGRVTMTTDTSTSTAYMELRSLRSDDTAVYYCARESYYGSGAFRGGMDVWGQGTTVTVSSASTKGPSVFPLAPSSKSTSGGTAALGCLVKDYFPEPVTVSWNSGALTSGVHTFPAVLQSSGLYSLSSVVTVPSSSLGTQTYICNVNHKPSNTKVDKKVEPKSCDKTHTCPPCPAPEAAGAPSVFLFPPKPKDTLMISRTPEVTCVVVDVSHEDPEVKFNWYVDGVEVHNAKTKPREEQYNSTYRVVSVLTVLHQDWLNGKEYKCKVSNKALPAPIEKTISKAKGQPREPQVCTLPPSREEMTKNQVSLWCLVKGFYPSDIAVEWESNGQPENNYKTTPPVLDSDGSFFLYSKLTVDKSRWQQGNVFSCSVLHEALHSHYTQKSLSLSPGK
light: not shown
LC-Fc: not shown
mFd: EVQLVQSGAEVKKPGESLKISCKGSGYSFTTYWLGWVRQMPGKGLDWIGIMSPVDSDIRYSPSFQGQVTMSVDKSITTAYLQWNSLKASDTAMYYCARRRPGQGYFDFWGQGTLVTVSSASTKGPSVFPLAPSSKSTSGGTAALGCLVKDYFPEPVTVSWNSGALTSGVHTFPAVLQSSGLYSLSSVVTVPSSSLGTQTYICNVNHKPSNTKVDKKVEPKSC
notes: KiH mFd format with the anti-p40 arm as modified Fd
B2: p40TL1A-0042 KiH mFd bispecific antibody (bispecific antibody)
heavy: B1 heavy with C356Y, S361C, W373S, L375A, Y414V
light: not shown
LC-Fc: not shown
mFd: B1 mFd
notes: as for B1
B3: p40TL1A-0040 KiH mFd bispecific antibody (bispecific antibody)
heavy: EVQLVQSGAEVKKPGESLKISCKGSGYSFTTYWLGWVRQMPGKGLDWIGIMSPVDSDIRYSPSFQGQVTMSVDKSITTAYLQWNSLKASDTAMYYCARRRPGQGYFDFWGQGTLVTVSSASTKGPSVFPLAPSSKSTSGGTAALGCLVKDYFPEPVTVSWNSGALTSGVHTFPAVLQSSGLYSLSSVVTVPSSSLGTQTYICNVNHKPSNTKVDKKVEPKSCDKTHTCPPCPAPEAAGAPSVFLFPPKPKDTLMISRTPEVTCVVVDVSHEDPEVKFNWYVDGVEVHNAKTKPREEQYNSTYRVVSVLTVLHQDWLNGKEYKCKVSNKALPAPIEKTISKAKGQPREPQVYTLPPCREEMTKNQVSLSCAVKGFYPSDIAVEWESNGQPENNYKTTPPVLDSDGSFFLVSKLTVDKSRWQQGNVFSCSVLHEALHSHYTQKSLSLSPGK
light: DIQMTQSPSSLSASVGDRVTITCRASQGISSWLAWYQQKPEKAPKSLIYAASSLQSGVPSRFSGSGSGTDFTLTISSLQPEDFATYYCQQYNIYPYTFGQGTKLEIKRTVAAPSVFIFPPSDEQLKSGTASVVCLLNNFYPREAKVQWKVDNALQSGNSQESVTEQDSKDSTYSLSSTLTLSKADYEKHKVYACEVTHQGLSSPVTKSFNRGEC
LC-Fc: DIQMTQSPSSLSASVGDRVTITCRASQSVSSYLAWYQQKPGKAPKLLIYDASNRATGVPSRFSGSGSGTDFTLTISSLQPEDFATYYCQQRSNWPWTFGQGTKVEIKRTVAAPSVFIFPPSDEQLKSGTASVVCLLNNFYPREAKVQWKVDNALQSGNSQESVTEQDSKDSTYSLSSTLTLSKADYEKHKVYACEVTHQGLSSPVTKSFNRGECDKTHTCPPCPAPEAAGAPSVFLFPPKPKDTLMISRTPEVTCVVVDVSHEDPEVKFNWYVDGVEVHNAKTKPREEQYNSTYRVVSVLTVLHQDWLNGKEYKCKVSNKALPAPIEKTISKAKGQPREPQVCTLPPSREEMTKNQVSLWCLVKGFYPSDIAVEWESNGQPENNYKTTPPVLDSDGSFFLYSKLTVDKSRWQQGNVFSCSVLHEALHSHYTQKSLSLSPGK
mFd: QVQLVQSGAEVKKPGASVKVSCKASGYDYTYYGISWVRQAPGQGLEWMGWISTYNTGTHYAPSLQGRVTMTTDTSTSTAYMELRSLRSDDTAVYYCARESYYGSGAFRGGMDVWGQGTTVTVSSASTKGPSVFPLAPSSKSTSGGTAALGCLVKDYFPEPVTVSWNSGALTSGVHTFPAVLQSSGLYSLSSVVTVPSSSLGTQTYICNVNHKPSNTKVDKKVEPKSC
notes: Same format as p40TL1A-0033 with knob and hole swapped
B4: TL1A-0368 MBsAb (bispecific antibody)
heavy 1: B1 heavy
heavy 2: QVQLVQSGAEVKKPGASVKVSCKASGYTFTSYGISWVRQAPGQGLEWMGWISAYNGNTNYAQKLQGRVTMTTDTSTSTAYMELRSLRSDDTAVYYCARESYYGSEAFRAGMDVWGQGTTVTVSS
light: not shown
notes: not shown: human IgG1 constant region with hole KiH, effector-minimizing and LS mutations
B5: TL1A-0375 MBsAb (bispecific antibody)
heavy 1: B1 heavy
heavy 2: not shown
light: not shown
notes: as for B4
B6: TL1A-0370 MBsAb (bispecific antibody)
heavy 1: B1 heavy
heavy 2: B4 heavy 2 with Y101S
light: not shown
notes: as for B4

Positions count from the first letter of the chain named.

The results in this text go back to patent US20240059799A1 (Pfizer, published 2024).

The target in the first experiment is T1, recombinant human TL1A (human, UniProt O95150 71-251).
T1 chain: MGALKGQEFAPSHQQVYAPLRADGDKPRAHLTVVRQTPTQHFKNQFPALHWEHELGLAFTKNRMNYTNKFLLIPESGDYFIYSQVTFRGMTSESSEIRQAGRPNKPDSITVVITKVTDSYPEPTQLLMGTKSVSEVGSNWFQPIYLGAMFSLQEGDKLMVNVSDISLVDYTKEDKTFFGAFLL
Briefly: cell-based or functional assay.
B1: the “NF-κB assay IC50 (TF-1 reporter cells, 384-well)” value (from here on “NF-κB assay IC50”) was determined as 0.32 nM.
Take B2: the “NF-κB assay IC50” value was 0.32 nM.
With B3, the “NF-κB assay IC50” value stood at 0.27 nM.

The target in another experiment is T2, bovine serum albumin (bovine, UniProt P02769 25-607).
T2 construct: also called BSA
T2 sequence (P02769 25-607 limits assumed): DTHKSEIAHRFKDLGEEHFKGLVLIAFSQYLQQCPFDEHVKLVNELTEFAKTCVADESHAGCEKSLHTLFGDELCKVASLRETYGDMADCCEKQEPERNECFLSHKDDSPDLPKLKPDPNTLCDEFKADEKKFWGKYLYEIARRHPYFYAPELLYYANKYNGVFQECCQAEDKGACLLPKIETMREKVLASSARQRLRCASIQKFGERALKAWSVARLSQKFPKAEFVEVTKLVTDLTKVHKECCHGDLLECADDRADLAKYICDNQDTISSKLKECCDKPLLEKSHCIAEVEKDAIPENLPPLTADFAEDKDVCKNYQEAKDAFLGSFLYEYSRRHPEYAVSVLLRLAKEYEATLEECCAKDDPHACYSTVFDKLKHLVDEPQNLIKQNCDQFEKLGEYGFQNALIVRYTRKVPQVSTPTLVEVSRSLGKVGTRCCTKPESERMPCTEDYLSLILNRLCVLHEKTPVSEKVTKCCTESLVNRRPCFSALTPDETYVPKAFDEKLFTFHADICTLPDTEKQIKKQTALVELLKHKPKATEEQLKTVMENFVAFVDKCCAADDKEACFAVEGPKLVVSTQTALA
Put plainly: direct binding ELISA on coated BSA. The procedure:
(§1) For the direct binding ELISA method to HSA or BSA, 96-well high binding plates (Corning, product number 3590) were coated with 1 μg/mL recombinant HSA or BSA in 100 μL/well in PBS overnight at 4° C. Plates were then blocked in PBS+0.02% casein solution and washed with PBS+0.05% Tween-20 following standard ELISA protocol. […] Plates were washed with PBS+0.05% Tween-20 following standard ELISA protocol, and goat anti-human IgG-Fc HRP conjugated secondary antibody (Pierce, #31413) diluted to 1:10,000 in assay buffer was added to plates and incubated for 1 hour at room temperature. Next, the plates were washed with PBS+0.05% Tween-20 following standard ELISA protocol, and then TMB substrate (BioFX Laboratories, catalog number TMBW-0100-01) was added to plates.
(§2) Reactions were stopped after approximately 5 minutes by adding 0.18 M ortho-phosphoric acid to each well and absorbance was read at 450 nm. […] For this method, samples diluted to 0.3 mg/mL were dispensed into the sample tray of a MicroCal VP-Capillary DSC with Autosampler (Malvern Instruments, Inc.), equilibrated for 5 minutes at 10° C. and then scanned up to 110° C. at a rate of 100° C. per/hour. A filtering period of 16 seconds was selected. Raw data was baseline corrected and the protein concentration was normalized. Origin Software 7.0 (Origin Lab Corporation, Northampton, MA) was used to fit the data to an MN2-State Model with an appropriate number of transitions.
On the technique in general: An ELISA detects its analyte on a solid surface through an enzyme-linked reagent.
B4: the binding result is reported as “no binding (tested: 0.5-1000 nM)”.
Still for that read-out and setting: in the case of B5 it was “no binding (tested: 0.5-1000 nM)”; in that of B6, “no binding (tested: 0.5-1000 nM)”.

A further experiment concerns the target T3, human serum albumin (human, UniProt P02768 25-609).
T3 construct: also called HSA
Put plainly: direct binding ELISA on coated HSA. The procedure: as §1, §2
For B4, the binding result was “no binding (tested: 0.5-1000 nM)”.
Take B5: the binding result is recorded as “no binding (tested: 0.5-1000 nM)”.
Same read-out and setting: in the case of B6 it was “no binding (tested: 0.5-1000 nM)”.

The next experiment concerns the target T4, human IL-23 (human, UniProt P29460 23-328; Q9NPF7 20-189).
T4 construct: also called recombinant human IL-23 (p40/p19)
T4 sequence 1: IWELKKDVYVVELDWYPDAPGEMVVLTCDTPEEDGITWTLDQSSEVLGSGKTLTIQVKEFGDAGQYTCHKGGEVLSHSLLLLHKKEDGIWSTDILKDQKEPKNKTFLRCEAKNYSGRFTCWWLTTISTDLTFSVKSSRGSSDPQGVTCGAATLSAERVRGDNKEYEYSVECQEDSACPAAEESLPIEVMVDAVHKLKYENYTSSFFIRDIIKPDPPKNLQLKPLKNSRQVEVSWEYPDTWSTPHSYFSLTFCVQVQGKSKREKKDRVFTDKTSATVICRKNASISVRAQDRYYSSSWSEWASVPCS
T4 sequence 2: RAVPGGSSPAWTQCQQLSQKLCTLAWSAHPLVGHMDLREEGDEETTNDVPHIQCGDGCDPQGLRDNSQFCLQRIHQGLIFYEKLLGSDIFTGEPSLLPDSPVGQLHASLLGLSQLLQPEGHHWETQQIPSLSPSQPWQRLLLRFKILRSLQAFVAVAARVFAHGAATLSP
Briefly: SPR, 37 C; antibody captured by anti-human Fc, human IL-23 injected. The procedure:
(§3) SPR was utilized to determine if the affinity constants of each arm of the bispecific variants binding human IL-23, containing the p40 subunit, and human TL1A were the same for each bispecific approach. For the analysis of the p40 binding arm, kinetic assays were conducted at 37° C. using a collection rate of 10 Hz on a Biacore™ 8 K+ instrument (GE Healthcare). An anti-human IgG antibody (anti-human Fc, GE Healthcare, 22-0648-88) was amine coupled to all four flow cells of a carboxymethylated dextran coated sensor chip (GE Healthcare,) using the manufacturer's recommended protocol. […] For the analysis of the TL1A binding arm, kinetic assays were conducted at 37° C. using a collection rate of 10 Hz on a Biacore™ T200 instrument (GE Healthcare).
(§4) As described above in EXAMPLE 12, SPR was utilized to determine if the affinity constants of each arm of the bispecific variants binding human IL-23, containing the p40 subunit, and human TL1A were the same for each bispecific variant.
On the technique in general: Surface plasmon resonance follows binding to a sensor surface in real time, without labels.
As for B1, binding was put at a Kd of 0.213 nM; the koff – broadly, a measure of how fast the partners let go of each other – turned out to be 0.000485 s⁻¹; the kon (as a rule, the rate constant with which the complex forms) stood at 2.29e+06 M⁻¹ s⁻¹.
Consider B2, for which binding was characterised by a dissociation constant (Kd) of 0.207 nM, the koff was 0.000488 s⁻¹ and the kon amounted to 2.35e+06 M⁻¹ s⁻¹.
Regarding B3, the affinity, expressed as Kd, was 0.194 nM; the off-rate (koff) was 0.00055 s⁻¹; the on-rate (kon) was 2.83e+06 M⁻¹ s⁻¹.

The next experiment has as its target T1, recombinant human TL1A. Put plainly: SPR, 37 C; biotinylated human TL1A captured on Biotin CAPture chip, antibody injected. The procedure:
as §3, §4
With B1, the Kd (as a rule, the constant that tells how readily two partners part at equilibrium) worked out at 0.577 nM; the koff amounted to 7.56e-05 s⁻¹; the kon is 131000 M⁻¹ s⁻¹.
The corresponding values for B2 are 0.419 nM, 7.42e-05 s⁻¹ and 177000 M⁻¹ s⁻¹.
Taken in the same sequence, the figures for B3 were 0.627 nM, 8.22e-05 s⁻¹ and 131000 M⁻¹ s⁻¹.
